Data: patent US20160272683A1 (Novo Nordisk, published 2016)
Numbered stars: 1 amine (or outer) side, 2 acyl side, 3 side chain; on linkers, the order of the positions; unused ones are H or OH. * marks the point of attachment. C20 diacid = O=C(O)CCCCCCCCCCCCCCCCCCC(=O)*; C18 diacid = O=C(O)CCCCCCCCCCCCCCCCC(=O)*; C16 diacid = O=C(O)CCCCCCCCCCCCCCC(=O)*; γGlu = O=C(O)[C@H](CCC(=O)[*:2])N[*:1]; C14 diacid = O=C(O)CCCCCCCCCCCCC(=O)*; C12 diacid = O=C(O)CCCCCCCCCCC(=O)*; Palmitoyl = CCCCCCCCCCCCCCCC(=O)*; AEEA = NCCOCCOCC(=O)O

B1: [N-terminal(C18 diacid-gGlu), des1, 4Q, 16Q, 30S, 31G]mimylin (peptide)
peptide: {C18 diacid-γGlu}-ASQLSTAALGRLSAQLHELATLPRTETGSGSP-NH2
SMILES: CC(C)C[C@H](NC(=O)[C@H](C)NC(=O)[C@H](C)NC(=O)[C@@H](NC(=O)[C@H](CO)NC(=O)[C@H](CC(C)C)NC(=O)[C@H](CCC(N)=O)NC(=O)[C@H](CO)NC(=O)[C@H](C)NC(=O)CC[C@H](NC(=O)CCCCCCCCCCCCCCCCC(=O)O)C(=O)O)[C@@H](C)O)C(=O)NCC(=O)N[C@@H](CCCNC(=N)N)C(=O)N[C@@H](CC(C)C)C(=O)N[C@@H](CO)C(=O)N[C@@H](C)C(=O)N[C@@H](CCC(N)=O)C(=O)N[C@@H](CC(C)C)C(=O)N[C@@H](Cc1c[nH]cn1)C(=O)N[C@@H](CCC(=O)O)C(=O)N[C@@H](CC(C)C)C(=O)N[C@@H](C)C(=O)N[C@H](C(=O)N[C@@H](CC(C)C)C(=O)N1CCC[C@H]1C(=O)N[C@@H](CCCNC(=N)N)C(=O)N[C@H](C(=O)N[C@@H](CCC(=O)O)C(=O)N[C@H](C(=O)NCC(=O)N[C@@H](CO)C(=O)NCC(=O)N[C@@H](CO)C(=O)N1CCC[C@H]1C(N)=O)[C@@H](C)O)[C@@H](C)O)[C@@H](C)O
notes: also called Ex. #87
B2: [N-terminal(C18 diacid)]mimylin (peptide)
peptide: {C18 diacid}-EASELSTAALGRLSAELHELATLPRTETGPESP-NH2
SMILES: CC(C)C[C@H](NC(=O)[C@H](C)NC(=O)[C@H](C)NC(=O)[C@@H](NC(=O)[C@H](CO)NC(=O)[C@H](CC(C)C)NC(=O)[C@H](CCC(=O)O)NC(=O)[C@H](CO)NC(=O)[C@H](C)NC(=O)[C@H](CCC(=O)O)NC(=O)CCCCCCCCCCCCCCCCC(=O)O)[C@@H](C)O)C(=O)NCC(=O)N[C@@H](CCCNC(=N)N)C(=O)N[C@@H](CC(C)C)C(=O)N[C@@H](CO)C(=O)N[C@@H](C)C(=O)N[C@@H](CCC(=O)O)C(=O)N[C@@H](CC(C)C)C(=O)N[C@@H](Cc1c[nH]cn1)C(=O)N[C@@H](CCC(=O)O)C(=O)N[C@@H](CC(C)C)C(=O)N[C@@H](C)C(=O)N[C@H](C(=O)N[C@@H](CC(C)C)C(=O)N1CCC[C@H]1C(=O)N[C@@H](CCCNC(=N)N)C(=O)N[C@H](C(=O)N[C@@H](CCC(=O)O)C(=O)N[C@H](C(=O)NCC(=O)N1CCC[C@H]1C(=O)N[C@@H](CCC(=O)O)C(=O)N[C@@H](CO)C(=O)N1CCC[C@H]1C(N)=O)[C@@H](C)O)[C@@H](C)O)[C@@H](C)O
notes: also called Ex. #2
B3: [N-terminal(C18 diacid), 20I]mimylin (peptide)
peptide: {C18 diacid}-EASELSTAALGRLSAELHEIATLPRTETGPESP-NH2
SMILES: CC[C@H](C)[C@H](NC(=O)[C@H](CCC(=O)O)NC(=O)[C@H](Cc1c[nH]cn1)NC(=O)[C@H](CC(C)C)NC(=O)[C@H](CCC(=O)O)NC(=O)[C@H](C)NC(=O)[C@H](CO)NC(=O)[C@H](CC(C)C)NC(=O)[C@H](CCCNC(=N)N)NC(=O)CNC(=O)[C@H](CC(C)C)NC(=O)[C@H](C)NC(=O)[C@H](C)NC(=O)[C@@H](NC(=O)[C@H](CO)NC(=O)[C@H](CC(C)C)NC(=O)[C@H](CCC(=O)O)NC(=O)[C@H](CO)NC(=O)[C@H](C)NC(=O)[C@H](CCC(=O)O)NC(=O)CCCCCCCCCCCCCCCCC(=O)O)[C@@H](C)O)C(=O)N[C@@H](C)C(=O)N[C@H](C(=O)N[C@@H](CC(C)C)C(=O)N1CCC[C@H]1C(=O)N[C@@H](CCCNC(=N)N)C(=O)N[C@H](C(=O)N[C@@H](CCC(=O)O)C(=O)N[C@H](C(=O)NCC(=O)N1CCC[C@H]1C(=O)N[C@@H](CCC(=O)O)C(=O)N[C@@H](CO)C(=O)N1CCC[C@H]1C(N)=O)[C@@H](C)O)[C@@H](C)O)[C@@H](C)O
notes: also called Ex. #12
B4: [N-terminal(C20 diacid-gGlu), 1A, 23Y, 30S, 31G]mimylin (peptide)
peptide: {C20 diacid-γGlu}-AASELSTAALGRLSAELHELATYPRTETGSGSP-NH2
SMILES: CC(C)C[C@H](NC(=O)[C@H](C)NC(=O)[C@H](C)NC(=O)[C@@H](NC(=O)[C@H](CO)NC(=O)[C@H](CC(C)C)NC(=O)[C@H](CCC(=O)O)NC(=O)[C@H](CO)NC(=O)[C@H](C)NC(=O)[C@H](C)NC(=O)CC[C@H](NC(=O)CCCCCCCCCCCCCCCCCCC(=O)O)C(=O)O)[C@@H](C)O)C(=O)NCC(=O)N[C@@H](CCCNC(=N)N)C(=O)N[C@@H](CC(C)C)C(=O)N[C@@H](CO)C(=O)N[C@@H](C)C(=O)N[C@@H](CCC(=O)O)C(=O)N[C@@H](CC(C)C)C(=O)N[C@@H](Cc1c[nH]cn1)C(=O)N[C@@H](CCC(=O)O)C(=O)N[C@@H](CC(C)C)C(=O)N[C@@H](C)C(=O)N[C@H](C(=O)N[C@@H](Cc1ccc(O)cc1)C(=O)N1CCC[C@H]1C(=O)N[C@@H](CCCNC(=N)N)C(=O)N[C@H](C(=O)N[C@@H](CCC(=O)O)C(=O)N[C@H](C(=O)NCC(=O)N[C@@H](CO)C(=O)NCC(=O)N[C@@H](CO)C(=O)N1CCC[C@H]1C(N)=O)[C@@H](C)O)[C@@H](C)O)[C@@H](C)O
notes: also called Ex. #57
B5: [N-terminal(C18 diacid), 32H]mimylin (peptide)
peptide: {C18 diacid}-EASELSTAALGRLSAELHELATLPRTETGPEHP-NH2
SMILES: CC(C)C[C@H](NC(=O)[C@H](C)NC(=O)[C@H](C)NC(=O)[C@@H](NC(=O)[C@H](CO)NC(=O)[C@H](CC(C)C)NC(=O)[C@H](CCC(=O)O)NC(=O)[C@H](CO)NC(=O)[C@H](C)NC(=O)[C@H](CCC(=O)O)NC(=O)CCCCCCCCCCCCCCCCC(=O)O)[C@@H](C)O)C(=O)NCC(=O)N[C@@H](CCCNC(=N)N)C(=O)N[C@@H](CC(C)C)C(=O)N[C@@H](CO)C(=O)N[C@@H](C)C(=O)N[C@@H](CCC(=O)O)C(=O)N[C@@H](CC(C)C)C(=O)N[C@@H](Cc1c[nH]cn1)C(=O)N[C@@H](CCC(=O)O)C(=O)N[C@@H](CC(C)C)C(=O)N[C@@H](C)C(=O)N[C@H](C(=O)N[C@@H](CC(C)C)C(=O)N1CCC[C@H]1C(=O)N[C@@H](CCCNC(=N)N)C(=O)N[C@H](C(=O)N[C@@H](CCC(=O)O)C(=O)N[C@H](C(=O)NCC(=O)N1CCC[C@H]1C(=O)N[C@@H](CCC(=O)O)C(=O)N[C@@H](Cc1c[nH]cn1)C(=O)N1CCC[C@H]1C(N)=O)[C@@H](C)O)[C@@H](C)O)[C@@H](C)O
notes: also called Ex. #18
B6: [N-terminal(C20 diacid-gGlu), 23Y, 30S, 31G]mimylin (peptide)
peptide: {C20 diacid-γGlu}-EASELSTAALGRLSAELHELATYPRTETGSGSP-NH2
SMILES: CC(C)C[C@H](NC(=O)[C@H](C)NC(=O)[C@H](C)NC(=O)[C@@H](NC(=O)[C@H](CO)NC(=O)[C@H](CC(C)C)NC(=O)[C@H](CCC(=O)O)NC(=O)[C@H](CO)NC(=O)[C@H](C)NC(=O)[C@H](CCC(=O)O)NC(=O)CC[C@H](NC(=O)CCCCCCCCCCCCCCCCCCC(=O)O)C(=O)O)[C@@H](C)O)C(=O)NCC(=O)N[C@@H](CCCNC(=N)N)C(=O)N[C@@H](CC(C)C)C(=O)N[C@@H](CO)C(=O)N[C@@H](C)C(=O)N[C@@H](CCC(=O)O)C(=O)N[C@@H](CC(C)C)C(=O)N[C@@H](Cc1c[nH]cn1)C(=O)N[C@@H](CCC(=O)O)C(=O)N[C@@H](CC(C)C)C(=O)N[C@@H](C)C(=O)N[C@H](C(=O)N[C@@H](Cc1ccc(O)cc1)C(=O)N1CCC[C@H]1C(=O)N[C@@H](CCCNC(=N)N)C(=O)N[C@H](C(=O)N[C@@H](CCC(=O)O)C(=O)N[C@H](C(=O)NCC(=O)N[C@@H](CO)C(=O)NCC(=O)N[C@@H](CO)C(=O)N1CCC[C@H]1C(N)=O)[C@@H](C)O)[C@@H](C)O)[C@@H](C)O
notes: also called Ex. #34

Each binder was assayed against T1, human calcitonin receptor (human, UniProt P30988 25-474) (assay: whole-cell competition vs 125I-human calcitonin (Assay VIIa)).
T1 construct: whole, on cells; also called hCT-R; hCTR
T1 sequence (looked up): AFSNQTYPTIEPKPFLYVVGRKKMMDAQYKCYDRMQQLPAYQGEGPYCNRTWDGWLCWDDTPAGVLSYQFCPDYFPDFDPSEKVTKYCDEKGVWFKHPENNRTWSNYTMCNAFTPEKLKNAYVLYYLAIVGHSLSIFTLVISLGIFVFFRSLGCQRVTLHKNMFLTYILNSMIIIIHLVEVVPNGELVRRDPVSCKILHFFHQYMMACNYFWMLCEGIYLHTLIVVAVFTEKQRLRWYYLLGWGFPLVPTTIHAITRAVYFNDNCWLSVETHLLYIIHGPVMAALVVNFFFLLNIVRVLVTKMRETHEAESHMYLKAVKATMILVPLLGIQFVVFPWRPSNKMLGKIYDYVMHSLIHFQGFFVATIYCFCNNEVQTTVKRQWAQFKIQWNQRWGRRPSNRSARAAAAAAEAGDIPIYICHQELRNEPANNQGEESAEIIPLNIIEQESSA
Method in brief: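 BHK tk'ts 13 cells stably co-expressing human calcitonin receptor and a CRE-luciferase reporter, seeded overnight at 37 °C. Bound tracer counted by scintillation after cold HBSS washes and NaOH/SDS lysis; IC₅₀ from one-site competition fit taken as receptor affinity.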
{C20 diacid-γGlu-AEEA-AEEA-AEEA}-ASELSTAALGRLSAELHELATLPRTETGSGSP-NH2 (also called Ex. #43) [[N-terminal(C20 diacid-gGlu-3xOEG), des1, 30S, 31G]mimylin] showed an IC50 of 0.352 nM. {C14 diacid-γGlu}-ASELSTAALGRLSAELHELATLPRTETGPESP-NH2 (also called Ex. #19) [[N-terminal(C14 diacid-gGlu), des1]mimylin] showed an IC50 of 0.515 nM. Work on B1 yielded an IC50 of 0.59 nM. Work on {C16 diacid}-EASELSTAALGRLSAELHELATLPRTETGPESP-NH2 (also called Ex. #3) [[N-terminal(C16 diacid)]mimylin] yielded an IC50 of 0.413 nM. For Palmitoyl-EASELSTAALGRLSAELHELATLPRTETGPESP-NH2 (also called Ex. #7) [[N-terminal(C16)]mimylin], the IC50 was 0.834 nM. In the case of B2, the IC50 is reported as 0.798 nM. Binder {C14 diacid-γGlu-γGlu-AEEA-AEEA-AEEA-AEEA}-EASELSTAALGRLSAELHELATLPRTETGPESP-NH2 (also called Ex. #5) [[N-terminal(C14 diacid-2xgGlu-4xOEG)]mimylin] has an IC50 of 6.51 nM. For {C14 diacid}-EASELSTAALGRLSAELHELATLPRTETGPESP-NH2 (also called Ex. #4) [[N-terminal(C14 diacid)]mimylin], the IC50 was 1.05 nM. {C12 diacid}-EASELSTAALGRLSAELHELATLPRTETGPESP-NH2 (also called Ex. #6) [[N-terminal(C12 diacid)]mimylin] showed an IC50 of 5.68 nM. B3 was tested, and the IC50 was 0.419 nM. Work on {C20 diacid}-EASELSTAALGRLSAELHELATLPRTETGSGSP-NH2 (also called Ex. #22) [[N-terminal(C20 diacid), 30S, 31G]mimylin] yielded an IC50 of 0.188 nM. In the case of B4, the IC50 is reported as 2.54 nM. {C18 diacid}-EASELSTAALGRLSAELHELATLPRTETGSGSP-NH2 (also called Ex. #21) [[N-terminal(C18 diacid), 30S, 31G]mimylin] showed an IC50 of 0.315 nM. Binder B5 has an IC50 of 1.17 nM. Work on B6 yielded an IC50 of 2.27 nM.
